The target in one assay is T1, MmQSOX1Erv (Mus musculus, UniProt Q8BND5 289-550, FAD cofactor bound).
T1 construct: also called MmQSOX1 Erv module
T1 sequence: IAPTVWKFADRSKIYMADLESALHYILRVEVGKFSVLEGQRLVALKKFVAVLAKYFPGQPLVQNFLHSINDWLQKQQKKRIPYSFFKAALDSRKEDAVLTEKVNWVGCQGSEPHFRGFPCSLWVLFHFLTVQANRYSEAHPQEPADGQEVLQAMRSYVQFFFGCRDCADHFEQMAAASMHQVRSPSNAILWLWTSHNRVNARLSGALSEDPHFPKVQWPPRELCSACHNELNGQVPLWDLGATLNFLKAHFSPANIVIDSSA
The assay is described as follows: analytical size-exclusion chromatography. The procedure:
(§1) MsQSOX1-antibody complexes were injected after a 30 min co-incubation at 4° C. Elution of proteins was monitored by absorbance at 280 nm.
A general note: Size exclusion chromatography separates by hydrodynamic size, large species first.

Assay [1] concerns the target T2, MmQSOX1Trx (Mus musculus, UniProt Q8BND5 36-275).
T2 construct: Residues 36-275 of Mus musculus QSOX1, made in E. coli, purified on Ni-NTA; also called MmQSOX1Trv; Trx module of MmQSOX1
T2 sequence: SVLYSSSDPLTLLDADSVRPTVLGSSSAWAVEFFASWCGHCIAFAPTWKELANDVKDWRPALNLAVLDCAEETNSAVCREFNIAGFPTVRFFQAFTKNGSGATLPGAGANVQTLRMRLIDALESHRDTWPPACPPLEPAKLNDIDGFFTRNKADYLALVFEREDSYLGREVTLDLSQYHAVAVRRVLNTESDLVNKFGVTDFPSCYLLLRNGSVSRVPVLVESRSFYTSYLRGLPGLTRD
Put plainly: analytical size-exclusion chromatography. The procedure:
as §1

Assay [2] deals with T2, MmQSOX1Trx. Put plainly: complex purified by size-exclusion chromatography. The procedure:
A stop codon was inserted after the CH1 segment of the heavy chain, to obtain a coding sequence for a Fab fragment. […] Prior to crystallization the complexes were concentrated to 10 mg/ml.

A further assay has as its target MmQSOX1 A116P (Mus musculus). The assay is described as follows: cell-based or functional assay.
The target of assay [3] is MmQSOX1 TLPG(138-141)VFPV (Mus musculus). The assay is described as follows: cell-based or functional assay.
Assay [4] has as its target T3, Homo sapiens QSOX1 (recombinant HsQSOX1) (Homo sapiens, UniProt O00391 33-546, limits assumed).
T3 sequence: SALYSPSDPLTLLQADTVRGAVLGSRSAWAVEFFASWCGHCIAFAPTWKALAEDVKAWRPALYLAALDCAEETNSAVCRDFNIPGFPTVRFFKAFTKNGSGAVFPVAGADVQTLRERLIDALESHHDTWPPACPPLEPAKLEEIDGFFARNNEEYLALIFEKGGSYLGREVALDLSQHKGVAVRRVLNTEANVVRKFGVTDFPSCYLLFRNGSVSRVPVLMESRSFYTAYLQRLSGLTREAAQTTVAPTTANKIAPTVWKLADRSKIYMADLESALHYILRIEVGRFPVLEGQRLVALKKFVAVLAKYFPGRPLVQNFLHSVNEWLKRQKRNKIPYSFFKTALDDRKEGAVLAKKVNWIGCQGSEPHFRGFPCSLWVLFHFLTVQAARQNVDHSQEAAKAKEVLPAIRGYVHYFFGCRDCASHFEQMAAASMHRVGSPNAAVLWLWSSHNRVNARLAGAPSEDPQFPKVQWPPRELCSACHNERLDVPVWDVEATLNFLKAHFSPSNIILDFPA
Put plainly: cell-based or functional assay.

Assay [5] has as its target MmQSOX1 A116P and TLPG(138-141)VFPV (Mus musculus). The assay is described as follows: cell-based or functional assay.
The target in a further assay is T4, biotinylated MmQSOX1Trx (Mus musculus, UniProt Q8BND5 36-275, Biotin on the lysine of the C-terminal AviTag (tag not in the letters); in early screening rounds pre-loaded with streptavidin-APC).
T4 construct: Used for yeast-surface display; in the first screening rounds pre-loaded with streptavidin-APC in a 1:4 molar ratio; also called MmQSOX1Trx with AviTag; not shown: purification tag
T4 sequence: T2 sequence
The assay is described as follows: yeast-surface display flow cytometry. (In general: In flow cytometry, cells or beads pass a laser one at a time.)

Where a chain is given by its changes, count along the chain named. Names may count otherwise.

Method for biotinylated MmQSOX1Trx: Yeast were labeled with anti-cMyc (Santa Cruz Biotechnology) at a dilution 1:50 to monitor scFv expression, and with biotinylated MmQSOX1Trx (for concentrations see Table 3, below) for 45 minutes. […] Anti-fluorescein scFv (PDB code: 1X9Q) was used as a positive control for scFv display.

B1: MAb316.1 (antibody, V domains shown)
VH: QVQLQQSGPELVKPGASVKISCKASGYSFTSYYIHWVKQRPGQGLEWIGWIYPGSYNTEYSEKFKGKATLTADTSSSTAYMQLSSLTSEDSAVYYCARSEDWFAYWGQGTLVTVS
VL: QIVLTQSPAIMSASPGEKVTISCSASSSVSYMYWYHQKPGSSPKPWIYRTSNLASGVPARFSGSGSGTSYSLTISSMEAEDAATYYCQQYHSYPLTFGAGTKLELK
notes: Hybridoma antibody from QSOX1 knock-out mice immunised with MmQSOX1
With B1, the binding result with MmQSOX1Erv is recorded as “no binding”; with MmQSOX1Trx [1], “binds”.

B2: Fab316.1 (Fab, V domains shown)
VH: B1 VH
VL: B1 VL
notes: also called Fab fragment of MAb316.1
Take B2: in the assay with MmQSOX1Trx [2], the binding result is on record as “binds”.

B3: MAb492.1 (antibody, V domains shown)
VH: QVQLKQSGPGLVAPSQSLSITCTVSGFSLTGYGVNWVRQSPGKGLEWLGMIWGDGRTDYKSALKSRLSITKDNSKSQVFLKMNSLQTDDTARYFCASDYYGSGSFAYWGQGTLVTVSA
VL: DVVMTQTHKFMSTSVGDRVSITCKASQDVSTAVAWYQQKSGQSPKLLIHSASYRYTGVPDRFTGSGSGTDFTFTISSVQAEDLAVYYCQQHYSIPLTFGAGTKLELK
Take B3: the “percent inhibition of enzyme activity, oxygen consumption assay” value in the assay with MmQSOX1 A116P was roughly 60%; in assay [3], roughly 50%; in assay [4] it was 100%; in assay [5], 100%.

B4: scFv492.1 S93A Y99S Y100K G101D S102P D58E T31G H49S S50M Y52Q (scFv, V domains shown)
VH: B3 VH with D58E, Y99S, Y100K, G101D, S102P
VL: B3 VL with T31G, H49S, S50M, Y53Q, S93A
notes: also called template d; not shown: scFv linker and domain order; yeast display fusion partner and cMyc tag (pETCON)
For B4, the binding result in the assay with biotinylated MmQSOX1Trx is “binds”.

The record behind these values is patent US20180273639A1 (YEDA RESEARCH AND DEVELOPMENT, published 2018).
